Source: publication PMC7534368

Experiments:
[1] = biological target: SARS-CoV-2 spike ectodomain with the wild-type sequence (S-WT), aa 15-1,213, with C-terminal thrombi (SARS-CoV-2 | bacteriophage T4) (UniProt P0DTC2); test: AUC
[2] = biological target: SARS-CoV-2 spike ectodomain, prefusion trimer-stabilized form (S-2P), aa 15-1,213, with C-terminal t (SARS-CoV-2 | bacteriophage T4) (UniProt P0DTC2); test: cryo-EM structure

Row | Substance | stoichiometry N [1] | stoichiometry N [2]
1 | SARS-CoV-2 spike ectodomain with the wild-type sequence (S-WT), aa 15-1,213, with C-terminal thrombi (from UniProt P0DTC2 15-1213) (domain or fragment) | 3 | 
2 | SARS-CoV-2 spike ectodomain, prefusion trimer-stabilized form (S-2P), aa 15-1,213, with C-terminal t (from UniProt P0DTC2 15-1213) (domain or fragment) |  | 3
